How the values were obtained:
Test in all cases: EC50 of free RNA motif oligo competing protein binding to immobilised probe
RPS25 = RPS25 (UniProt P62851)
Method in brief: (§1)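 Over three biological replicates and two independent experiments, proteins captured on NHS-Sepharose beads carrying 5′-amino-C6 RNA oligos were quantified by label-free LC-MS/MS and normalised to the control. Capture lasted 30 min at 4°C and followed a 1 h pre-incubation at 4°C of HEK293-FT lysate (2.5 mg protein/well) with the same oligos in free form (0 nM to 30 μM). EC50 was taken from a four-parameter log-logistic fit, and Kd was EC50 corrected by a protein-dependent depletion factor.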

MRPL19 = MRPL19 (UniProt P49406)
Method in brief: as §1

SF3B3 = target: T1, SF3B3 (UniProt Q15393)
T1 sequence: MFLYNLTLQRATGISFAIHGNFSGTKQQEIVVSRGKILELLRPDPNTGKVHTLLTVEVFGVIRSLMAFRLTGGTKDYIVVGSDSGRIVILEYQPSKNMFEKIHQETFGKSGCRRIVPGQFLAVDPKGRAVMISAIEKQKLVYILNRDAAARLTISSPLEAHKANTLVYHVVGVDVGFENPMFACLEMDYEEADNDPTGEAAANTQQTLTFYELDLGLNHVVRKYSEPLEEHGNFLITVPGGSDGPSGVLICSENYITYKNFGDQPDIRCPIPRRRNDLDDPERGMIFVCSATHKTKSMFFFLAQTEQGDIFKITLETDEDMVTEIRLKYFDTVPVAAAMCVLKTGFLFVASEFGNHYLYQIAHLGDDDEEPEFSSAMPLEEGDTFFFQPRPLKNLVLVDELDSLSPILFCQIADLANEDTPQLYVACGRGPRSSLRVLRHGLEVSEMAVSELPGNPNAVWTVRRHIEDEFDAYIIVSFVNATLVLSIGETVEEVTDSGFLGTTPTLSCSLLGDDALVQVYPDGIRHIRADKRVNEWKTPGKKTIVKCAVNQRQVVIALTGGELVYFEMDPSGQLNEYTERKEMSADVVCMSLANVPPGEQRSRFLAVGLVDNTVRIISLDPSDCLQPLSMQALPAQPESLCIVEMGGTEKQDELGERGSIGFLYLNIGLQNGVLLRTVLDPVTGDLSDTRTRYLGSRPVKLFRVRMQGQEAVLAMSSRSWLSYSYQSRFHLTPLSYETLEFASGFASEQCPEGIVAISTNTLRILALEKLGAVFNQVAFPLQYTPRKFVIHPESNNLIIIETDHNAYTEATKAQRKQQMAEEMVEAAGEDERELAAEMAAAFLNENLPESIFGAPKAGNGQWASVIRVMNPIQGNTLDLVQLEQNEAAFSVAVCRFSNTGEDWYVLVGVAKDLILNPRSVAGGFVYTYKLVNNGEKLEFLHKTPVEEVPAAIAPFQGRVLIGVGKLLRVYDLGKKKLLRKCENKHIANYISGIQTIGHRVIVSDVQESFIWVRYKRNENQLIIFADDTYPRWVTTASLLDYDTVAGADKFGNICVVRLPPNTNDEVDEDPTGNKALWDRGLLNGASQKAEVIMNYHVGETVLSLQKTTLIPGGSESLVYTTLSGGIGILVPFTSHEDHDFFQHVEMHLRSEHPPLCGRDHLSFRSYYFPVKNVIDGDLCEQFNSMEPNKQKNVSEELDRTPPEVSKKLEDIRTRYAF
Method in brief: as §1

ERI3 = target: T2, ERI3 (UniProt O43414)
T2 sequence: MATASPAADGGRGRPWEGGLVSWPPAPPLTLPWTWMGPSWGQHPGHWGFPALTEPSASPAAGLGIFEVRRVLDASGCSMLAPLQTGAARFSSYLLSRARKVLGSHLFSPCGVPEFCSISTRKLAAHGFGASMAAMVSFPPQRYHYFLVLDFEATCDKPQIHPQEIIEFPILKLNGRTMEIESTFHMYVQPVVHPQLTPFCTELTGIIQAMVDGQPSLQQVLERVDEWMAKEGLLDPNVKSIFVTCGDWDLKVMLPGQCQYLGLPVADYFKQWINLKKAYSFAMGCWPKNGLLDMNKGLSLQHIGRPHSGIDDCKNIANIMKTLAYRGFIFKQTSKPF
Method in brief: as §1

CXorf57 = CXorf57 (UniProt Q6NSI4)
Method in brief: as §1

CWF19L1 = target: T3, CWF19L1 (UniProt Q69YN2)
T3 sequence: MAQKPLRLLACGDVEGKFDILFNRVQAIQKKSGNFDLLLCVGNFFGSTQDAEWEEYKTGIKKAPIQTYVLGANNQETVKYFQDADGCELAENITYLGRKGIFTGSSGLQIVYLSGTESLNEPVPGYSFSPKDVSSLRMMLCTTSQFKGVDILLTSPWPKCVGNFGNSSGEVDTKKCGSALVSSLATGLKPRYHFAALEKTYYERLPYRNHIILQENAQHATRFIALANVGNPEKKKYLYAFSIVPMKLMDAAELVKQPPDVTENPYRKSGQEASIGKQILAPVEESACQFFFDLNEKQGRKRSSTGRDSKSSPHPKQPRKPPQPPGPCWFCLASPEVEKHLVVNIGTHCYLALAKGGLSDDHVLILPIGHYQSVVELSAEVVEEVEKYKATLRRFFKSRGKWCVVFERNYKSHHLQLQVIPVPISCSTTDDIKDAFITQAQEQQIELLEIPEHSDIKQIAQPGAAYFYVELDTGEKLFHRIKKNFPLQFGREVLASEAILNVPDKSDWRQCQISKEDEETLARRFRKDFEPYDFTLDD
Method in brief: as §1

MRPS34 = MRPS34 (UniProt P82930)
Method in brief: as §1

CXorf57, sequence (Q6NSI4 whole entry): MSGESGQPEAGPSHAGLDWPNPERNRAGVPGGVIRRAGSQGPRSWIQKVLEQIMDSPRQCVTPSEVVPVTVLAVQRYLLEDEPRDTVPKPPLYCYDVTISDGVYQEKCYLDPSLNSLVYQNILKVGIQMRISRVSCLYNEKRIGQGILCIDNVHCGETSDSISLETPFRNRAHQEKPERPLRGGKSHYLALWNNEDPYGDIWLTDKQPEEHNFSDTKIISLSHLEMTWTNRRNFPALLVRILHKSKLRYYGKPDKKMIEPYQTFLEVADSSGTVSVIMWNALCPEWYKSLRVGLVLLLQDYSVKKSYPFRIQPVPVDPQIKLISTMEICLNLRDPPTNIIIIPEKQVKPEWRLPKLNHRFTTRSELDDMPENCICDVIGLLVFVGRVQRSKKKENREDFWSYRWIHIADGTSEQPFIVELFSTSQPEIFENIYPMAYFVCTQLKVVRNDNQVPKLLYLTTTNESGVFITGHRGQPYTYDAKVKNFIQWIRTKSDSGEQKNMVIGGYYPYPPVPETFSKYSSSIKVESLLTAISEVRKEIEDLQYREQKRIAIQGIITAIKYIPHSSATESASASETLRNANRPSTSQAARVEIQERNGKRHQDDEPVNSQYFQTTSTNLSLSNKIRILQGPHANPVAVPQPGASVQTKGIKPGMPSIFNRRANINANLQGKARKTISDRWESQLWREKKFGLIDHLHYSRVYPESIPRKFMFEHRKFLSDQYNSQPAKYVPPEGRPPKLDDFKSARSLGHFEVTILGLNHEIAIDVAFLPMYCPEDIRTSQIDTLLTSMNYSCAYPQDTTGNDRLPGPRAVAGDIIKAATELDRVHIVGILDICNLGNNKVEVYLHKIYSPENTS

Work on CUGUCCU yielded an EC50 (RPS25) of 0.0725 µM and an EC50 (MRPL19) of 0.136 µM.
For AAUAAA, the EC50 (SF3B3) was 4.88 µM, the EC50 (ERI3) was 1.97 µM and the EC50 (CXorf57) was 3.56 µM.
In the case of UAUUUAU, the EC50 (CWF19L1) is reported as 3.16 µM and the EC50 (MRPS34) is reported as 0.0597 µM.
